This data set can be described thus: soluble fraction after stress (log2 fold change); higher = more stays soluble; pooled small domains, quantitative proteomics. The settings on record: stress: 50 degC. An outline of the steps: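 Pooled custom libraries of small protein domains were each held under stress at 50°C. The read-out, high-throughput quantitative proteomics, tracked how much of each protein stayed soluble. This is reported as a base-two log fold change used to indicate aggregation propensity. Higher values mean more protein remains in solution.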

Regarding “HMKIKAKYTTDFGIRIYAPKPGKNYWRISYVDLDGKLRDTTATSEKTALDKSAEIEVLLRNN”, the “soluble fraction (log2)” value was -1.89.

For “HMSMDYYSTLGVSKTASASDIKKAYRKLAMANHPDKGGDSAKFAKITEAYDVLKDPQKRNNYDQFGTA”, the “soluble fraction (log2)” value is 0.162.

Turning to “HMLASDYEEELSVLIKMSHKIAAGDDSLMDDFNDRVTMFESSYPINKATKDLTPVLERVNKFQT”, the “soluble fraction (log2)” value is -0.346.

As to “HMTISIAEQIFEQLEREILSGAYPRGELLTETKLSEKLGVSRTPIREALRRLDQEHIIKMTTKGAFVLGI”, the “soluble fraction (log2)” value was -2.04.

Take “HMTESSTYFEKIGTEISQFKSIPKNIDVIIIEKLIYSGIIKKVDNEENSRVYYILTRKGRYFWKRYVLS”: the “soluble fraction (log2)” value amounted to 0.0633.

On to “HMDPTVEENKLNPRDLLIIQRVKEGRTNKEIAEELNVAEITVKKQLSSLYQRYKVHNRNQLLLALD”, for which the “soluble fraction (log2)” value is 0.117.

With “HMEELVGFEEKVRSILTSPLSAKEIKEKTHIEIDTRKLSKMLSELSFIKTEKKNGKKIFRLVS”, the “soluble fraction (log2)” value was -0.284.

For “HMGRRDLSWQPAAGGVSIDGLKAGEAWTLFGLNGRILKQGYAPEGQMSLAVNAGLFVLRGAESGVIRIAVA”, the “soluble fraction (log2)” value is -1.25.

Turning to “HMVTEKPLYRDELMDHDTVWVEPISMDSHLRMELRGWYHVKNRFVENEVGQRFYFDFYDIKWLAFTNGP”, the “soluble fraction (log2)” value is -2.08.

For “HMDAKIKDYADAYAKMDPQQAASLFNNMTTGSLDLVAKILENIPANKRAAILEKMDVNAAAQVTEKMR”, the “soluble fraction (log2)” value was 0.117.

For “HMIVVMAADSSREDLDLVQGRIEARGLRAQISQGVERIVIGVLGSLPPDLKDEMELLPGVREVLVIS”, the “soluble fraction (log2)” value is -0.405.

Turning to “HMPNSIKAPAYLHNIARIYDHVLIDVEKASSAYEKLIKKYPNHPLSINAKLYLENAFNRSDEELLNMIKEN”, the “soluble fraction (log2)” value was -0.798.

In the case of “HMEKAYVWTDTRTFDVQNYIGKKKSEVKNDQYGFEFLGEGDYVIDQLPRVGEQIEEGQKVKIMLGNQQEI”, the “soluble fraction (log2)” value worked out at 0.0468.

As to “HMSDTMTVTNVKYAIYLRSTPSEASDANIIMEIPVGSKVTYLDTPNNTFYKISYGGTVGYSKQIYLTF”, the “soluble fraction (log2)” value was -0.836.

Consider “HMTKTRTEILEYLKQNWSVTVSASDIKKHLEEKEIKANTTTIYRYLDKLLAEHVIIKYADAGSERAVYQYS”, for which the “soluble fraction (log2)” value was -2.31.

Turning to “HMEQVKFFDAKVITTPPNRLKTRYTPAGNLRPEADWLQSGAIVPVYETSGAGWYRIGYQTWASAEWMQRLD”, the “soluble fraction (log2)” value is -0.934.

In the case of “HMDKMIFFKNKENNDDNQLVKIGALLIHAAKIDEDFSQEEENIIKQTLINFGAGNKNINEIIEKAKKME”, the “soluble fraction (log2)” value was 0.389.

In the case of “HMEVSTDADFEAVGIRAELIPILQKLGFTTVAQLKEVKATKLFNDIPGMRKKLKLDAVQNPTLQEIEGWLK”, the “soluble fraction (log2)” value is -0.0529.

For the sequence “HMPRNMTFAIRGEYITLDALLKAVGAADSGAQAKHRIAEGEVTVDGVVETRKTRKLRGGETVVVDDLAVVL”, the “soluble fraction (log2)” value was -0.272.

For the sequence “HMTEDQDWAIFKQKLKAQTEIDLDLYKEPQMKHRIKNLIQNAGFDSYVQYFDYVYLNQDRLAAFLENLTV”, the “soluble fraction (log2)” value came out at 0.0704.

Turning to “HMFRPDYYEILQVDRHASPEVITAAYRQLLSIYNSEQDGNKQMIKLIQEAYGVLGDSQDRWLYDSWLDNN”, the “soluble fraction (log2)” value is -0.746.

For “HMAGSGLPVPRFVSLADDRVNARAGPGFRFPINWVYLRKGFPVEVVDEFGPWRRIRDIDGVAAWIHLSMLS”, the “soluble fraction (log2)” value was -0.85.

As to “HMALTAEVLRSLIKHHGLGQSIQRTAKAVGLSASTVKKYFDRIAAANLTWQEAKSRTQEELIASLQPT”, the “soluble fraction (log2)” value is -0.358.

“HMNEIESFSNTKNPFSLTFKTSKDSSYKVEASSNLKKWTTLSQIKGTGNPITFTESRRILFRKQYYRVTLS”: the “soluble fraction (log2)” value is -0.197.

Consider “HMSSDLVDYLVKYVAIVDNQEIEIADSKIGTAELGTTVSEVAKTVGNYYPKATVLSVKITGRNQEIVFEY”, for which the “soluble fraction (log2)” value is -2.83.

For “HMPASGISSEIIYDGILIEENLRQLKKDKAWLMDQLKKKGISSVSEVFLATLNKGGSLYIDKY”, the “soluble fraction (log2)” value was -0.0117.

With “HMADVIKLVNTSVLNVRSGAGINYSKIGSLTQGTKVNIISESNGWSKINYNGKIGYISSQYVSEVS”, the “soluble fraction (log2)” value was -0.206.

Source of the values: the domain aggregation screens of Martell et al. (2025).
